± gives the standard error. Variants at the floor of the assay were thinned out.
B1: glmS ribozyme (parent)
chain: AUAAAAGCGCCAGAACUACAGAAAUGUAGUUGACGAGGAGGAGGUUUAUCGAAUUUUCGGCGGAUGCCUCCAAA

Legend:
Conditions in all cases: with glucosamine-6-phosphate
glucosamine-6-phosphate [1] = variants of: B1; experiment: self-cleavage kobs at 40 uM GlcN6P; higher = faster cleavage; RNA array
Outline: (§1)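 Ribozyme variants carrying barcodes were transcribed in situ on sequenced MiSeq chips by E. coli RNA polymerase and tracked at 37 °C with a hybridised Cy3 probe. They were exposed to 40 μM to 10 mM glucosamine-6-phosphate in HEPES/KCl/Mg(OAc)2 buffer. kobs came from exponential decay fits of normalised per-tile medians, and kcat and KM from weighted Michaelis–Menten fits.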

glucosamine-6-phosphate [2] = variants of: B1; experiment: self-cleavage kobs at 160 uM GlcN6P; higher = faster cleavage; RNA array
Outline: as §1

glucosamine-6-phosphate [3] = variants of: B1; experiment: self-cleavage kobs at 640 uM GlcN6P; higher = faster cleavage; RNA array
Outline: as §1

glucosamine-6-phosphate [4] = variants of: B1; experiment: self-cleavage kobs at 2500 uM GlcN6P; higher = faster cleavage; RNA array
Outline: as §1

glucosamine-6-phosphate [5] = variants of: B1; experiment: self-cleavage kobs at 10000 uM GlcN6P; higher = faster cleavage; RNA array
Outline: as §1

Variant | self-cleavage kobs at 40 uM GlcN6P (glucosamine-6-phosphate [1]) [s⁻¹] | self-cleavage kobs at 160 uM GlcN6P (glucosamine-6-phosphate [2]) [s⁻¹] | self-cleavage kobs at 640 uM GlcN6P (glucosamine-6-phosphate [3]) [s⁻¹] | self-cleavage kobs at 2500 uM GlcN6P (glucosamine-6-phosphate [4]) [s⁻¹] | self-cleavage kobs at 10000 uM GlcN6P (glucosamine-6-phosphate [5]) [s⁻¹]
U47C G66C | < 1e-05 | < 1e-05 | < 1e-05 | < 1e-05 | –
U45C A53G C67G C68A | 3.17e-05 ± 1.3e-05 | – | – | – | 8.22e-05 ± 1.3e-05
U46C C61G | < 1e-05 | < 1e-05 | < 1e-05 | < 1e-05 | –
U47G C67U | 0.000141 ± 2.6e-05 | 0.000305 ± 5.6e-05 | 0.00064 ± 8.6e-05 | 0.00125 ± 0.0002 | 0.00343 ± 0.00067
U47G A52G U69C | 6.7e-05 ± 2.4e-05 | – | – | – | 9.36e-05 ± 1.5e-05
U47C C61G C71U | < 1e-05 | – | – | – | < 1e-05
G44C C68G | < 1e-05 | < 1e-05 | < 1e-05 | < 1e-05 | < 1e-05
U47A U56C C70G | < 1e-05 | – | – | – | –
G44C C70G | < 1e-05 | < 1e-05 | < 1e-05 | < 1e-05 | < 1e-05
U47C G59U C70A | < 1e-05 | – | – | – | –
U46A U69A | < 1e-05 | – | 5.02e-05 ± 2e-05 | 0.00022 ± 6.2e-05 | 9.26e-05 ± 1.9e-05
U45A G51A | < 1e-05 | < 1e-05 | – | – | –
U47A A53U | 0.000547 ± 6.1e-05 | 0.00098 ± 0.0002 | 0.00349 ± 0.00062 | 0.00324 ± 0.00072 | 0.0124 ± 0.0022
U47G U56G C61U C67G C70U | 0.000123 ± 6.1e-05 | – | 0.000281 ± 8.9e-05 | – | 4.99e-05 ± 1.9e-05
G44U U45C | < 1e-05 | – | – | – | –
G44A G62A | < 1e-05 | < 1e-05 | < 1e-05 | < 1e-05 | < 1e-05
U47G G62A | < 1e-05 | – | < 1e-05 | – | –
G44C A48U | < 1e-05 | < 1e-05 | < 1e-05 | < 1e-05 | < 1e-05
G44A A52G | < 1e-05 | < 1e-05 | – | – | –
U46A C58U | < 1e-05 | < 1e-05 | < 1e-05 | – | –
U47A U49C | < 1e-05 | – | < 1e-05 | < 1e-05 | –

Source: the supplement of paper PMC7125110
